# Test results taken from the supplement of paper PMC10899765.
# Tested on: MCF10A
# Experiment: 5+ nucleoli phenotype percent effect (relative to siNT 0% and siKIF11 100%); higher = more cells with five or more nucleoli
# Settings: 20 nM; 72 h
# Method: (§1)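 After 72 h, cells were fixed and stained with Hoechst and anti-fibrillarin, and nucleoli per nucleus were counted with CellProfiler. Values are plate-adjusted percent effect for the one-nucleolus and 5+ nucleoli phenotypes, normalised to siNT (0%) and to the positive controls siNOL11 or siKIF11 (100%), as the mean of biological triplicates. Percent viability is the nuclei count relative to siNT.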
row,Sequence,5+ nucleoli phenotype percent effect [%]
1,GACAUUCAGACUACCUG [hsa-miR-4262],-5.77
2,UGGGGAUUUGGAGAAGUGGUGA [hsa-miR-4450],3.63
3,AGAAGAUUGCAGAGUAAGUUCC [hsa-miR-4699-5p],-32.9
4,UCGACAGCACGACACUGCCUUC [hsa-miR-196b-3p],5.68
5,ACCAGGGCCAGCAGGGAAUGU [hsa-miR-6837-5p],-15
6,UCUGGUGUAUAGCGUUGCUCA [hsa-miR-7978],-4.49
7,CAUCAGAAUUCAUGGAGGCUAG [hsa-miR-2115-3p],-5.23
8,GUGGGUGCUGGUGGGAGCCGUG [hsa-miR-6741-5p],-22.2
9,AACCAUCGACCGUUGAGUGGAC [hsa-miR-181c-3p],-21.2
10,UGAGGCUAAUGCACUACUUCAC [hsa-miR-3975],-22.7
11,AACCUUGGCCCCUCUCCCCAG [hsa-miR-6813-3p],67.7
12,GGCUUGCAUGGGGGACUGG [hsa-miR-4327],7.45
13,ACUCAAAAGAUGGCGGCACUUU [hsa-miR-371b-5p],19.5
14,AGGCCUCUGUGACGUCACGGUGU [hsa-miR-4757-5p],66.8
15,GAGCUUGGUCUGUAGCGGUU [hsa-miR-4453],-29.1
16,UUGUGGCUGGUCAUGAGGCUAA [hsa-miR-4474-3p],22.3
17,UAGGCCUUUAGAUCACUUAAA [hsa-miR-1245b-5p],-5.02
18,ACCUUGCAUCUGCAUCCCCAG [hsa-miR-6841-3p],-39.3
19,UGACCGAUUUCUCCUGGUGUUC [hsa-miR-29c-5p],-8.5
20,UCGGGGAUCAUCAUGUCACGAGA [hsa-miR-542-5p],30.4
21,AGACUUCCCAUUUGAAGGUGGC [hsa-miR-617],-37.8
22,CUCGCCCUGUCUCCCGCUAG [hsa-miR-6726-3p],66.4
23,CCUGGGGACAGGGGAUUGGGGCAG [hsa-miR-8089],40.1
24,UGACCCCCAUGUCGCCUCUGUAG [hsa-miR-6859-3p],-21.2
25,ACAAAGUGCUUCCCUUUAGAGU [hsa-miR-520h],11.9
26,UUUCAGAUAACAGUAUUACAU [hsa-miR-3942-3p],-0.677
27,UGAGUAUUACAUGGCCAAUCUC [hsa-miR-496],-15.6
28,ACUGUAGUAUGGGCACUUCCAG [hsa-miR-20b-3p],-11.6
29,CAGUGAUUUGAGGAUUAUUGC [hsa-miR-8062],-26.5
30,GUGGUUAUCCCUGUCCUGUUCG [hsa-miR-487b-5p],17.4

# Tested on: MCF10A
# Experiment: one-nucleolus phenotype percent effect (relative to siNT 0% and siNOL11 100%); higher = more cells with one nucleolus (ribosome biogenesis inhibition)
# Settings: 20 nM; 72 h
# Method: as §1
row,Sequence,one-nucleolus phenotype percent effect [%]
1,AGGUUGUCCGUGUUGUCUUCUCU [hsa-miR-494-5p],3.91
2,CAUGCCUUGAGUGUAGGACCGU [hsa-miR-532-5p],19.3
3,CAUGCUGACCUCCCUCCUGCCCCAG [hsa-miR-4728-3p],-12.7
4,UACAGAUGCAGAUUCUCUGACUUC [hsa-miR-5683],15.3
5,UUGAGAAUGAUGAAUCAUUAGG [hsa-miR-580],-18.3
6,CAGCCCCACAGCCUCAGA [hsa-miR-4323],2.83
7,AAUGUGUAGCAAAAGACAGA [hsa-miR-511-3p],55.2
8,UUGGGGGUGAGGUUGGUGUCUGG [hsa-miR-6751-5p],13.4
9,UGGAGAUCCAGUGCUCGCCCGAU [hsa-miR-4683],24.4
10,GUGACUGAUACCUUGGAGGCAU [hsa-miR-4439],-2.03
11,CAGGGCAGGGAAGGUGGGAGAG [hsa-miR-6879-5p],-11.1
12,UCACACCUGCCUCGCCCCCC [hsa-miR-1228-3p],5.12
13,AUUGAAACCUCUAAGAGUGGA [hsa-miR-510-3p],-2.4
14,AAAAGCUGGGCUGAGAGGCG [hsa-miR-4429],24.9
15,UGUGAUAUCGUGCUUCCUGGGA [hsa-miR-3689f],-21.8
16,UACCCAUUGCAUAUCGGAGUUG [hsa-miR-660-5p],44.9
17,GGAGGGGUCCCGCACUGGGAGG [hsa-miR-1914-3p],-23.7
18,GCACCCAGGCAAGGAUUCUG [hsa-miR-500b-3p],11.8
19,AUUCUAAGUGCCUUGGCC [hsa-miR-4263],-0.791
20,CACCCGUAGAACCGACCUUGCG [hsa-miR-99b-5p],21.8

row,Sequence,one-nucleolus phenotype percent effect [%]
1,UAACAUAAUAGUGUGGAUUGA [hsa-miR-4803],-25
2,UCCCUCCUUCUGUCCCCACAG [hsa-miR-4667-3p],-2.78
3,AGCGCGGGCUGAGCGCUGCCAGUC [hsa-miR-2277-5p],25.5
4,UCUCUCUGACUCCAUGGCA [hsa-miR-6817-3p],1.99
5,AUUGCCUAACAUGUGCCAGAA [hsa-miR-4774-3p],13.7
6,AAAGUGCUUCCCUUUGGACUGU [hsa-miR-520a-3p],-9.18
7,ACUGACAGGAGAGCAUUUUGA [hsa-miR-3660],-1.95
8,AAUUGCACUUUAGCAAUGGUGA [hsa-miR-367-3p],-12.8
9,CAGGCAGGGAGGUGGGACCAUG [hsa-miR-6808-5p],28.6
10,GACAUUCAGACUACCUG [hsa-miR-4262],6.49
11,UGGGGAUUUGGAGAAGUGGUGA [hsa-miR-4450],46.8
12,AGAAGAUUGCAGAGUAAGUUCC [hsa-miR-4699-5p],31.8
13,UCGACAGCACGACACUGCCUUC [hsa-miR-196b-3p],2.46
14,ACCAGGGCCAGCAGGGAAUGU [hsa-miR-6837-5p],33.6
15,UCUGGUGUAUAGCGUUGCUCA [hsa-miR-7978],19.2
16,CAUCAGAAUUCAUGGAGGCUAG [hsa-miR-2115-3p],15.3
17,GUGGGUGCUGGUGGGAGCCGUG [hsa-miR-6741-5p],6.09
18,AACCAUCGACCGUUGAGUGGAC [hsa-miR-181c-3p],16.6
19,UGAGGCUAAUGCACUACUUCAC [hsa-miR-3975],38.9
20,AACCUUGGCCCCUCUCCCCAG [hsa-miR-6813-3p],-35.3

row,Sequence,one-nucleolus phenotype percent effect [%]
1,GGCUUGCAUGGGGGACUGG [hsa-miR-4327],12.4
2,ACUCAAAAGAUGGCGGCACUUU [hsa-miR-371b-5p],-20.5
3,AGGCCUCUGUGACGUCACGGUGU [hsa-miR-4757-5p],-11.7
4,GAGCUUGGUCUGUAGCGGUU [hsa-miR-4453],33.6
5,UUGUGGCUGGUCAUGAGGCUAA [hsa-miR-4474-3p],3.27
6,UAGGCCUUUAGAUCACUUAAA [hsa-miR-1245b-5p],19.2
7,ACCUUGCAUCUGCAUCCCCAG [hsa-miR-6841-3p],15
8,UGACCGAUUUCUCCUGGUGUUC [hsa-miR-29c-5p],21.1
9,UCGGGGAUCAUCAUGUCACGAGA [hsa-miR-542-5p],1.02
10,AGACUUCCCAUUUGAAGGUGGC [hsa-miR-617],43.9
11,CUCGCCCUGUCUCCCGCUAG [hsa-miR-6726-3p],-28.4
12,CCUGGGGACAGGGGAUUGGGGCAG [hsa-miR-8089],-19.7
13,UGACCCCCAUGUCGCCUCUGUAG [hsa-miR-6859-3p],2.24
14,ACAAAGUGCUUCCCUUUAGAGU [hsa-miR-520h],-15
15,UUUCAGAUAACAGUAUUACAU [hsa-miR-3942-3p],-15.3
16,UGAGUAUUACAUGGCCAAUCUC [hsa-miR-496],11.1
17,ACUGUAGUAUGGGCACUUCCAG [hsa-miR-20b-3p],1.32
18,CAGUGAUUUGAGGAUUAUUGC [hsa-miR-8062],7.28
19,GUGGUUAUCCCUGUCCUGUUCG [hsa-miR-487b-5p],-1.37
